Experimental data from publication PMC9022012 (Journal of immunology (Baltimore, Md. : 1950), 2020).
No end group written: not given here.

Columns and labels:
[1] = target: HLA-DRB4 (DRB4*01:01) (Homo sapiens, UniProt P01903+P13762, G164S); test: Competitive ELISA HLA class II peptide-binding assay, DRB4*01:01
[2] = target: HLA-DQ8 (DQA1*03:01/DQB1*03:02) (Homo sapiens, UniProt P01909+P01920, A209T/A45G/C70Q/D89A/DUP78-78/E183D/E77G/F237L/G63E/H199R/I129T/K197E/L178F/L74F/L98V/Q57E/Q76R/S185I/S97I/T217I/T49S/V73L/Y58L); test: Competitive ELISA HLA class II peptide-binding assay, DQ8
[3] = target: HLA-DQ2 (DQA1*05:01/DQB1*02:01) (Homo sapiens, UniProt P01909+P01920, A45G/A70V/D89A/E106A/E77G/E98D/H199R/L107V/N214S/P84L/P87L/T103K/T109R/T172A/T60S/V78E/V99I/Y58L/Y62S/Y69I/Y79F); test: Competitive ELISA HLA class II peptide-binding assay, DQ2
[4] = target: HLA-DR3 (DRB1*03:01) (Homo sapiens, UniProt P01903+P01911, A100K/A102G/A103R/A169T/F55Y/I96L/K41T/L162R/M171V/P40S/Q125H/Q178H/Q39Y/R42S/S66N/T106N/T262R/W38E/Y61H); test: Competitive ELISA HLA class II peptide-binding assay, DRB1*03:01
[5] = target: HLA-DR4 (DRB1*04:01) (Homo sapiens, UniProt P01903+P01911, A100K/A169T/F76Y/I96L/K127E/L162R/M171V/N62H/P40V/Q125Y/R42H/S133A/S149N/S66Y/V115G/V209L/W38E); test: Competitive ELISA HLA class II peptide-binding assay, DRB1*04:01
[6] = target: T1, proinsulin (C-peptide) peptide on HLA-DQA1*05:01 / HLA-DQB1*02:01 (human); test: proliferation
T1 peptide: SLQPLALEGSLQ

[7] = target: T2, proinsulin (B-chain) peptide on HLA-DQA1*05:01 / HLA-DQB1*02:01 (human); test: proliferation
T2 peptide: VCGERGFFY

[8] = target: T3, proinsulin (C-peptide) peptide on HLA-DRA*01:01 / HLA-DRB1*04:04 (human); test: proliferation
T3 peptide: PLALEGSLQ

[9] = target: T4, proinsulin (C-peptide) peptide on HLA-DRA*01:01 / HLA-DRB1*04:04 (human); test: proliferation
T4 peptide: PLALEGSLQK

[10] = target: T5, proinsulin (C-peptide) peptide on HLA-DQA1*03:01 / HLA-DQB1*03:02 (human); test: proliferation
T5 peptide: GGPGAGSLQPL

[11] = target: T6, proinsulin (B-chain) peptide on HLA-DQA1*05:01 / HLA-DQB1*02:01 (human); test: proliferation
T6 peptide: ALYLVCGERG

[12] = target: T7, proinsulin (C-peptide) peptide on HLA-DRA*01:01 / HLA-DRB1*04:01 (human); test: proliferation
T7 peptide: SLQPLALEGSL

[13] = target: T8, proinsulin (C-peptide) peptide on HLA-DRA*01:01 / HLA-DRB1*03:01 (human); test: proliferation
T8 peptide: QPLALEGSLQKR

`CC[C@H](C)[C@H](NC(=O)[C@@H](NC(=O)[C@H](C)NC(=O)[C@H](CCCCN)NC(=O)[C@H](CC(=O)O)NC(=O)[C@@H](NC(=O)[C@H](CCC(=O)O)NC(=O)[C@@H](NC(=O)[C@H](C)NC(=O)[C@H](CC(C)C)NC(=O)[C@H](CC(C)C)NC(=O)[C@H](CC(=O)O)NC(=O)CNC(=O)[C@H](C)N)[C@@H](C)CC)[C@@H](C)O)[C@@H](C)O)C(=O)O` [E2/E7] showed an IC50 [1] of 63 nM.

“ADVEVYRAVTPLGPPD [DQB45-57, reference compound]” was tested, and the IC50 [2] was 730 nM.

For “B11-25: overlapping proinsulin peptide (15-mer) (LVEALYLVCGERGFF; UniProt P01308 35-49, looked up, fragment) [Peptide B11-25]”, the “binding affinity to DQ8, in words” value [2] was “moderate to high” and the “binding affinity to DQ2, in words” value [3] was “moderate (binding ratio below 100 (moderate binding))”.

With “B14-28: overlapping proinsulin peptide (15-mer) (ALYLVCGERGFFYTP; UniProt P01308 38-52, looked up, fragment) [Peptide B14-28]” the “binding affinity to DQ8, in words” value [2] was “moderate to high” and the “binding affinity to DQ2, in words” value [3] was “did not show detectable binding affinity”.

In the case of “B17-C1: overlapping proinsulin peptide (15-mer) (LVCGERGFFYTPKTR; UniProt P01308 41-55, looked up, fragment) [Peptide B17-C1]”, the “binding affinity to DQ2, in words” value [3] is reported as “did not show detectable binding affinity”.

In the case of “B20-C4: overlapping proinsulin peptide (15-mer) (GERGFFYTPKTRREA; UniProt P01308 44-58, looked up, fragment) [Peptide B20-C4]”, the “binding affinity to DRB1*03:01, in words” value [4] is reported as “high (below 10 (high binding))”.

With “C13-27: overlapping proinsulin peptide (15-mer) (ELGGGPGAGSLQPLA; UniProt P01308 67-81, looked up, fragment) [Peptide C13-27]” the “binding affinity to DQ8, in words” value [2] was “did not show detectable binding affinity”.

In the case of “C16-30: overlapping proinsulin peptide (15-mer) (GGPGAGSLQPLALEG; UniProt P01308 70-84, looked up, fragment) [Peptide C16-30]”, the “binding affinity to DQ8, in words” value [2] is reported as “did not show detectable binding affinity”.

“C19-33: overlapping proinsulin peptide (15-mer) (GAGSLQPLALEGSLQ; UniProt P01308 73-87, looked up, fragment) [Peptide C19-33]” was tested, and the “binding affinity to DRB1*04:01, in words” value [5] was “abrogated”, the “binding affinity to DRB1*03:01, in words” value [4] was “abrogated” and the “binding affinity to DQ8, in words” value [2] was “moderate to high”. For the same molecule, the “binding affinity to DQ2, in words” value [3] was “moderate (binding ratio below 100 (moderate binding))”.

GIVEQCCTSICSLYQ [Peptide A1-15] was tested, and the “binding affinity to DQ8, in words” value [2] was “moderate to high” and the “binding affinity to DQ2, in words” value [3] was “moderate to high”.

B1: Clone 22 (TCR)
alpha TRAV2 TRAJ8 CDR3: CAVEDHGTGFQKLVF
beta TRBV4-3 TRBJ2-3 CDR3: CASSQETGPTQYF
B1: recognises [6].

B2: Clone 19 (TCR)
alpha TRAV29 TRAJ33 CDR3: CAASPSDSNYQLIW
beta TRBV7-2 TRBJ1-1 CDR3: CASSFRRGSMNTEAFF
B2: recognises [7].

B3: Clone 2 (TCR)
alpha TRAV13-1 TRAJ17 CDR3: CAASSKAAGNKLTF
beta TRBV6-1 TRBJ1-2 CDR3: CASSMTQGLDYGYTF
B3: recognises [8].

B4: Clone 1 (TCR)
alpha TRAV41 TRAJ49 CDR3: CAASNTGNQFYF
beta TRBV14 TRBJ2-7 CDR3: CASSQALAGVAEQYF
B4: recognises [9].

B5: Clone 23 (TCR)
alpha TRAV12-3 TRAJ33 CDR3: CAMSARSNYQLIW
beta TRBV4-3 TRBJ2-3 CDR3: CASSKMGPRTDTQYF
B5: recognises [10].

B6: Clone 24 (TCR)
alpha TRAV8-2 TRAJ20 CDR3: CAVSEAYKLSF
beta TRBV5-8 TRBJ2-5 CDR3: CASTEGIQETQYF
B6: recognises [11].

B7: Clone 13 (TCR)
alpha TRAV17 TRAJ11 CDR3: CATALISGYSTLTF
beta TRBV12-3 TRBJ2-1 CDR3: CASRQQGVGYNEQFF
B7: recognises [12].

B8: Clone 3 (TCR)
alpha TRAV19 TRAJ49 CDR3: CALSDRTGNQFYF
beta TRBV9 TRBJ1-2 CDR3: CASRLSGTNIPPTYGYTF
B8: recognises [9].

B9: Clone 11 (TCR)
alpha TRAV13-1 TRAJ47 CDR3: CAAMCKLVF
beta TRBV18 TRBJ1-2 CDR3: CASSPDRQGVEYTF
B9: recognises [13].
